Measured values from patent publication US20030206891A1 (ARIAD GENE THERAPEUTICS, published 2003).

Target: T1, Lex-FKBP (human, UniProt P0A7C2 1-87; P62942 2-108)
T1 construct: range 1-87;range 2-108; Translated in vitro in reticulocyte lysate; also called L87G6FKBP; p19BL87G6FKBP
Experiment: gel mobility shift with in vitro translated proteins and LexCon DNA probe, rapamycin added

- binding result: binds
B1: Lex-FRAP (other, UniProt P0A7C2 1-87, looked up, not shown: small tags and cut ends)
chain: MKALTARQQEVFDLIRDHISQTGMPPTRAEIAQRLGFRSPNAAEEHLKALARKGVIEIVSGASRGIRLLQEEEEGLPLVGRVAAGEPEMWHEGLEEASRLYFGERNVKGMFEVLEPLHAMMERGPQTLKETSFNQAYGRDLMEAQEWCRKYMKSGNVKDLTQAWDLYYHVFRRISK
notes: range 1-87;range 2025-2113; Translated in vitro in reticulocyte lysate; Junction residues from the SpeI-XbaI ligation are not spelled out; also called L87FRB; p19BL87FRB
